This note sets out measurements from US20240052042A1 (Novartis, published 2024).

The target of assay [1] is T1, human NPR1 on CHO-K1 cells (human, UniProt P16066 33-1061).
T1 sequence: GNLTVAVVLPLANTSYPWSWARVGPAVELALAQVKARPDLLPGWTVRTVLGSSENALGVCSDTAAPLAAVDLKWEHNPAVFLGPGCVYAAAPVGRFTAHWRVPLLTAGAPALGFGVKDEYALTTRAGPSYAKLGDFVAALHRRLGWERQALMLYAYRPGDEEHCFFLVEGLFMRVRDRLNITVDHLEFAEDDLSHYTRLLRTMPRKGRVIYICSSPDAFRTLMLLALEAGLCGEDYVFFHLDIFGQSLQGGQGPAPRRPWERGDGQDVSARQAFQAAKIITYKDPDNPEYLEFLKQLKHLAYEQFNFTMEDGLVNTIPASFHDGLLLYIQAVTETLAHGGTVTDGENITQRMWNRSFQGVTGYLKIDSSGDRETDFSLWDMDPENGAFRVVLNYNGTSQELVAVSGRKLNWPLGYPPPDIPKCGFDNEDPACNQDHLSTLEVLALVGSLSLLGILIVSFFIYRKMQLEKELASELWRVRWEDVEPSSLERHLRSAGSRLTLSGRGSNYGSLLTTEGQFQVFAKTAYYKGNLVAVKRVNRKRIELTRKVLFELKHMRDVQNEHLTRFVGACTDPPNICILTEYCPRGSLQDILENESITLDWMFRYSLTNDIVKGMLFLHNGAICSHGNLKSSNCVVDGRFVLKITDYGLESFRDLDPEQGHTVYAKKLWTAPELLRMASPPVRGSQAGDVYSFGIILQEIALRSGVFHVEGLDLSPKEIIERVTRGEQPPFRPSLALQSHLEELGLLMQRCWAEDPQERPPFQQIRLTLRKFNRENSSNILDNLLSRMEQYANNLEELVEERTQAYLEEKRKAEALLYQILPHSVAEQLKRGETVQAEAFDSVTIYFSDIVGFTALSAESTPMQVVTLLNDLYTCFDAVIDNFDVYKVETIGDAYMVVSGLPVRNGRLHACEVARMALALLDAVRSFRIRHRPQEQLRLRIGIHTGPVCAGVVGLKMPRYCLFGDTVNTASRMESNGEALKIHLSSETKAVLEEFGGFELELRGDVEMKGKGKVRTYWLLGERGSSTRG
The assay can be described thus: cell-based or functional assay.

For assay [2], the target named is T2, human Natriuretic Peptide Receptor 1 (hNPR1) (human, UniProt P16066 33-473, limits assumed).
T2 construct: pannings used NPR1-hFc; also called NPR1-hFc
T2 sequence: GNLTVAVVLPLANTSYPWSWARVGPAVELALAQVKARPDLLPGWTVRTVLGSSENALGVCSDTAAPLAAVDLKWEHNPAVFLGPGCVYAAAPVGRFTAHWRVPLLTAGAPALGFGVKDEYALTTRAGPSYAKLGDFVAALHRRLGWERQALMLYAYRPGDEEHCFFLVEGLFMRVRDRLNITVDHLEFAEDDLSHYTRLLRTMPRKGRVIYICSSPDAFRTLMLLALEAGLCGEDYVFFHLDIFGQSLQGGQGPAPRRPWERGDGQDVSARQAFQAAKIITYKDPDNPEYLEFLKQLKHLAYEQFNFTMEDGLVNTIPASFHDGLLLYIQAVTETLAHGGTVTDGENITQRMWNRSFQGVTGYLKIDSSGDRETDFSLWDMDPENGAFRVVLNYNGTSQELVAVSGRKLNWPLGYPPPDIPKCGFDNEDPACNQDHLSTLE
The assay can be described thus: FabCys affinity (Octet per Table 18 comment). (In general: In BLI a coated tip is dipped into the sample, and binding shifts an interference pattern.)

The target of assay [3] is T3, hNPR1-ANP complex (human, UniProt P01160 124-151, limits assumed).
T3 construct: hNPR1 antigen in the presence of ANP; also called hNPR1 + 100 nM ANP
T3 sequence: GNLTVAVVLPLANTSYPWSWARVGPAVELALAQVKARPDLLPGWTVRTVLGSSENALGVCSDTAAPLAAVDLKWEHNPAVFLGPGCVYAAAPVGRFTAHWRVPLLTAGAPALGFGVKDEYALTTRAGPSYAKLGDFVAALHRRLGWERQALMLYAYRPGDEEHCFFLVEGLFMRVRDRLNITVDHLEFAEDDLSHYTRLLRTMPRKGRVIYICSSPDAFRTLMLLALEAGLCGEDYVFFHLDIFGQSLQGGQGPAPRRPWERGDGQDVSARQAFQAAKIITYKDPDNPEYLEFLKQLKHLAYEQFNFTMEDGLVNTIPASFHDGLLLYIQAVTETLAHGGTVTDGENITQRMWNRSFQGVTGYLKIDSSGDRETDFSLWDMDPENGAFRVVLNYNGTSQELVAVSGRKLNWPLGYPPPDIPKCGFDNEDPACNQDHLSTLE
T3 sequence (peptide): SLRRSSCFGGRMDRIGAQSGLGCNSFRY
Put plainly: FabCys affinity (Octet per Table 18 comment).

The target in assay [4] is T4, rat NPR1 (rNPR1) (rat, UniProt P18910 29-469, limits assumed).
T4 construct: Soluble antigen
T4 sequence: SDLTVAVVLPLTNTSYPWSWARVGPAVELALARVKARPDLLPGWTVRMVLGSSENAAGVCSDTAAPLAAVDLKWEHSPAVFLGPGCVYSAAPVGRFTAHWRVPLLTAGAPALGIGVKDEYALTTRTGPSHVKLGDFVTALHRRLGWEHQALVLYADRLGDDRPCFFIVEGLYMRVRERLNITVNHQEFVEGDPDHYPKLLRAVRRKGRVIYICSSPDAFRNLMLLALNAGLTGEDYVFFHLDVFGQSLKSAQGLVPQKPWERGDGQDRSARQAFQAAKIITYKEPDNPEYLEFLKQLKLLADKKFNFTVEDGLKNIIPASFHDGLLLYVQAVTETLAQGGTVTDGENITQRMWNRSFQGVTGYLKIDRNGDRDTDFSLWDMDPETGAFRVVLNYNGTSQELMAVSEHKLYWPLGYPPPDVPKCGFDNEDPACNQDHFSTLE
Put plainly: FabCys affinity (Octet per Table 18 comment).

The target of assay [5] is T5, rNPR1-ANP complex (rat, UniProt P01160 124-151 (human entry), limits assumed).
T5 construct: rNPR1 antigen in the presence of ANP; also called rNPR1 + 100 nM ANP
T5 sequence: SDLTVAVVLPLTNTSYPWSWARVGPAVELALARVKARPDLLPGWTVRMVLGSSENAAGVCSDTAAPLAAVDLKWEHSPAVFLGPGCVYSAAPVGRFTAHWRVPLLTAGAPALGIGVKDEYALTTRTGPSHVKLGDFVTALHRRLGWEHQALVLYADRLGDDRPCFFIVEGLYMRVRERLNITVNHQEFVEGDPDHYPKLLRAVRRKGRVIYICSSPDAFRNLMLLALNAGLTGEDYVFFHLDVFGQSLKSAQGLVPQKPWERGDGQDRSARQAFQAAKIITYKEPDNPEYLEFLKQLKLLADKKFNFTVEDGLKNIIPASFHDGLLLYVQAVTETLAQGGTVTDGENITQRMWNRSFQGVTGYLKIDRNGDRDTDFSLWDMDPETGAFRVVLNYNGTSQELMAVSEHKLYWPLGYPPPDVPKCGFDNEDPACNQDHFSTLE
T5 sequence (peptide): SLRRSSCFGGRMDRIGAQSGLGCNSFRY
The assay can be described thus: FabCys affinity (Octet per Table 18 comment).

For assay [6], the target named is T2, human Natriuretic Peptide Receptor 1 …. The assay can be described thus: FabCys, parental value by Octet, assay limit reached (table comment), as in Table 14.
Assay [7] deals with T3, hNPR1-ANP complex. Described as above.
Assay [8] deals with T4, rat NPR1 (rNPR1). The description is as above.
The target of assay [9] is T5, rNPR1-ANP complex. Described as above.

B1: YY05 (FabCys format) (Fab, V domains shown)
VH: EVQLVQSGAEVKKPGESLKISCKGSGYSFTSYWISWVRQMPGKGLEWMGIIYPGTSYTRYSPSFQGQVTISADKSISTAYLQWSSLKASDTAMYYCARGAVAGQLGFDHWGQGTLVTVSS
VL: QSVLTQPPSVSGAPGQRVTISCTGSSSNIGAGYDVHWYQQLPGTAPKLLIYGNSNRPSGVPDRFSGSKSGTSASLAITGLQAEDEADYYCQSYYTSSHGPVFGGGTKLTVL
notes: Monovalent FabCys
In the case of B1, in assay [1], the “cGMP conc [nM] at 1 µM FabCys, +0.075 nM ANP” value came out at 227 nM. The “cGMP conc [nM] at 1 µM FabCys, without ANP” value in assay [1] was 207 nM. In addition, the Kd in assay [2] worked out at 0.9 nM; in the assay with hNPR1-ANP complex [3], 350 nM; with rat NPR1 (rNPR1) [4] it was 700 nM; in the assay with rNPR1-ANP complex [5], 16 µM; in assay [6], 0.9 nM; with hNPR1-ANP complex [7], 350 nM. The figures for the Kd with rat NPR1 (rNPR1) [8] and with rNPR1-ANP complex [9] were 700 nM and 16 µM, respectively.

Broadly, the Kd is the free concentration of one partner at which half of the binding sites on the other are occupied at equilibrium, for simple one-to-one binding.
